Source: article PMC10132805

Legend:
[1] = target: E3 ubiquitin-protein ligase NEDD4 WW2 domain (human)
[2] = target: E3 ubiquitin-protein ligase NEDD4 WW4 domain (human)
[3] = target: V domain of programmed cell death 6-interacting protein (ALIX V) (human) (UniProt Q8WUM4)
[4] = target: N-terminal domain of clathrin (CLTC NTD) (human) (UniProt Q00610)
Chain of N-terminal domain of clathrin (CLTC NTD) (human) (Q00610 whole entry, the tested form may be a part): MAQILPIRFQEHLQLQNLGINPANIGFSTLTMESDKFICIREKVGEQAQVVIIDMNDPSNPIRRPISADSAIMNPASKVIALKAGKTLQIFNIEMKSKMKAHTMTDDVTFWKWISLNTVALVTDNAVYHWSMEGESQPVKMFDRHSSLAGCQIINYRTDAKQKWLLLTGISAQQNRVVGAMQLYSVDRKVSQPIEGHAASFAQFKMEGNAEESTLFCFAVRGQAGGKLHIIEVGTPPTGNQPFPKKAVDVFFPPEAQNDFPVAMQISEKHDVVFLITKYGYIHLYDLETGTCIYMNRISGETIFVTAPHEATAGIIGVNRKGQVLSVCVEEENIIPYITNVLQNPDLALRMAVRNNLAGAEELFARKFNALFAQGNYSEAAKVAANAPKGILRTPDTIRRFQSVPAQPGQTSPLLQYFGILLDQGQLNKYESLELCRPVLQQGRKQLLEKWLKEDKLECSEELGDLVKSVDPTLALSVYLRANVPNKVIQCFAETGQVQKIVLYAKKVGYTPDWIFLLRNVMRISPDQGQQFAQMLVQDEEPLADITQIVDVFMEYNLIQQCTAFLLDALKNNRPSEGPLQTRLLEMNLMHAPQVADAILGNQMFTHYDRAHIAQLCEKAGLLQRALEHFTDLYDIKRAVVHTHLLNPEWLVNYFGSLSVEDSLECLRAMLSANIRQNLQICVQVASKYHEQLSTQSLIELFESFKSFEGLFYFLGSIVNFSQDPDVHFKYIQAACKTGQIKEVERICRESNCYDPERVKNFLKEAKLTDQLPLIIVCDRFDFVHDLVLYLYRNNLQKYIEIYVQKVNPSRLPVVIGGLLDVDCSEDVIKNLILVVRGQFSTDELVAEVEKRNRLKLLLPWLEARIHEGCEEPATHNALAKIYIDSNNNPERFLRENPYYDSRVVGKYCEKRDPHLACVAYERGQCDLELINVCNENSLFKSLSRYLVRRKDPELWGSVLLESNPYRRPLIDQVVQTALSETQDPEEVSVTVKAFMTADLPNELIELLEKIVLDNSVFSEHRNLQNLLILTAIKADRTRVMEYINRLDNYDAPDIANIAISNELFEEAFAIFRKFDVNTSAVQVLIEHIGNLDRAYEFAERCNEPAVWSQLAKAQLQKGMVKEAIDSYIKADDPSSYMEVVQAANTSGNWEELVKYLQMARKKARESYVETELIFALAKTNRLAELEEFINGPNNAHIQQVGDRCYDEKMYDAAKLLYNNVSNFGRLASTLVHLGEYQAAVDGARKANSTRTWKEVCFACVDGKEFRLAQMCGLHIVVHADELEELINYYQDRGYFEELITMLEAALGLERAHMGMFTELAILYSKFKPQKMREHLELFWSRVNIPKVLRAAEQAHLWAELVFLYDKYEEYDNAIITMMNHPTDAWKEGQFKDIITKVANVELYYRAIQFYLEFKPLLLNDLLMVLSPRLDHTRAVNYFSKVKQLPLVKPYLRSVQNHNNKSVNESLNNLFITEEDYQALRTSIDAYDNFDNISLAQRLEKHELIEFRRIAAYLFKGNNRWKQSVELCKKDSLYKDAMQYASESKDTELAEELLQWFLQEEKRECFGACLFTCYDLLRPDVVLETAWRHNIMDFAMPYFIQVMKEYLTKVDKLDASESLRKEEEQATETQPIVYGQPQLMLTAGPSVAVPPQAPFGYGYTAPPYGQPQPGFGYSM

Chain of E3 ubiquitin-protein ligase NEDD4 WW4 domain (human) (P46934 whole entry, the tested form may be a part): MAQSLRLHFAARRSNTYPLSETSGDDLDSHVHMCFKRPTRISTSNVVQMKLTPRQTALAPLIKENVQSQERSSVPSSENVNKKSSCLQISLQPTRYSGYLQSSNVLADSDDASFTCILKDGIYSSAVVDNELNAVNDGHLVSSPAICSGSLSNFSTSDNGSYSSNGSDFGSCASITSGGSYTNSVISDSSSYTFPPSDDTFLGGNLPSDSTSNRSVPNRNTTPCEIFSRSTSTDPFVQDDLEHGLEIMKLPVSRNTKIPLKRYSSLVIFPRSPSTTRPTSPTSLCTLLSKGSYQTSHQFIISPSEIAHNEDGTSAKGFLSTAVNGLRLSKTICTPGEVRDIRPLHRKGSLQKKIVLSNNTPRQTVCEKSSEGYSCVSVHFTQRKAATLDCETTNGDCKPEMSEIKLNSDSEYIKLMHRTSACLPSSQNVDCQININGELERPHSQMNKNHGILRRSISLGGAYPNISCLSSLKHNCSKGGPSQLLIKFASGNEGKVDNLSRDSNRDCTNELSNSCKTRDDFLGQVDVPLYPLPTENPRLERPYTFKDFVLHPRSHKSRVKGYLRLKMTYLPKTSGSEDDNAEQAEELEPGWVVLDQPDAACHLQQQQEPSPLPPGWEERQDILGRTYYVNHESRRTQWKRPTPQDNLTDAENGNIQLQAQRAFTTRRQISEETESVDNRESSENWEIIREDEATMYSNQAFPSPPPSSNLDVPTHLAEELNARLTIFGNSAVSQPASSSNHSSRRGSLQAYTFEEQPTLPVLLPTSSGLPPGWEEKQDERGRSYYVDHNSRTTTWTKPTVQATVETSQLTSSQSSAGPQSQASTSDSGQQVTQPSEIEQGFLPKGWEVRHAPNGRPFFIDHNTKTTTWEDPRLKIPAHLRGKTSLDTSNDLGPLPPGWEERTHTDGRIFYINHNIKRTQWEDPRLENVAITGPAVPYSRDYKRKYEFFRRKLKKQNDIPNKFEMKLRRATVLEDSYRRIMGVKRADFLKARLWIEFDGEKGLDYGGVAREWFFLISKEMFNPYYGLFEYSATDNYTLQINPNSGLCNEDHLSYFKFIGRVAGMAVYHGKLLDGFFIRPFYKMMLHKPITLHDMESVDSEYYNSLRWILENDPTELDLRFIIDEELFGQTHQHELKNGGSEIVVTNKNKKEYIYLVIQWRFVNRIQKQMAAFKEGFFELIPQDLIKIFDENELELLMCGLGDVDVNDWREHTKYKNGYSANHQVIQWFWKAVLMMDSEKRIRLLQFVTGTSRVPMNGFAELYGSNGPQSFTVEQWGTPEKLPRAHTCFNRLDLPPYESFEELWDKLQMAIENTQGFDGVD
Chain of E3 ubiquitin-protein ligase NEDD4 WW2 domain (human) (P46934 whole entry, the tested form may be a part): as above
Chain of V domain of programmed cell death 6-interacting protein (ALIX V) (human) (Q8WUM4 whole entry, the tested form may be a part): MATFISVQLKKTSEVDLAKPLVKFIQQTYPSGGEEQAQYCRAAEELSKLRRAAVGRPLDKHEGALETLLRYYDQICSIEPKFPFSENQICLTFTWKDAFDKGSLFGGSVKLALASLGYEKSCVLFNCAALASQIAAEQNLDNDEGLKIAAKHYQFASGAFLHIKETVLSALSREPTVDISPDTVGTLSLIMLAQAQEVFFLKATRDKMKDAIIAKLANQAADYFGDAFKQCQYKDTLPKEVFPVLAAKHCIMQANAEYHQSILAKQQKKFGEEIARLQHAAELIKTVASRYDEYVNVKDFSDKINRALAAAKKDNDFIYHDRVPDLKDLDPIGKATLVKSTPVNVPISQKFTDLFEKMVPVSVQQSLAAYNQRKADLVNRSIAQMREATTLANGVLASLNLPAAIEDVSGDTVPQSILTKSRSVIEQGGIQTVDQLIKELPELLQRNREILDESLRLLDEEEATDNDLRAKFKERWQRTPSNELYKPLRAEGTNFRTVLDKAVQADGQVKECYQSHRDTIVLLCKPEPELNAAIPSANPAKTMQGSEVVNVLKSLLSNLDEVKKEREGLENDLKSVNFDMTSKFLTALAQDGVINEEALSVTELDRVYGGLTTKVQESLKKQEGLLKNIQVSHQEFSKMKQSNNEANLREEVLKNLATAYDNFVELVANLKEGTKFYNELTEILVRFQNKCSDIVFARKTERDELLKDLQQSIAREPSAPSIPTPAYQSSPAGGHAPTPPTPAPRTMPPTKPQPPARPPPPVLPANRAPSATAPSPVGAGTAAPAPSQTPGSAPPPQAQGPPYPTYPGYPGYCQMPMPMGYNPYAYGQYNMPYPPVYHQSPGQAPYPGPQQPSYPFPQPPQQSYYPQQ

| Binder | Kd [1] [µM] | Kd [2] [µM] | Kd [4] [µM] | Kd [3] [µM] |
| --- | --- | --- | --- | --- |
| MSSLYPSLEDLKVDQA [SDCBP2 1-16 (Human)] |  |  |  | 0.29 |
| PPPVLYPNLAELENYM [SDCBP2 39-54 (Human)] |  |  |  | 2.1 |

Further lines, with some results ahead:

| Kd [1] [µM] | Kd [2] [µM] | Kd [4] [µM] | Binder | Kd [3] [µM] |
| --- | --- | --- | --- | --- |
| 15 | 35 |  | EPDQEPPPPYQEQVPVPVYHPTPSQ [RNF11 31-65 (Human)] |  |
|  |  | 40 | VPVDTNLIEFDTNYAT [ARRB2 367-382 (Human)] |  |
| 13 | 44 |  | EPDQEPPPPYQEQVPV [RNF11 31-56 (Human)] |  |
|  |  | 300 | GDLLGDLLNLDLGPPVY [AP1B1 626-641 (Human)] |  |
